assay: soluble on expression in E. coli; label from the status in PepcDB or PDB records

| Sequence | soluble on expression in E. coli |
| --- | --- |
| MAHHHHHHMLRRVPLRLARRKHGQTAWSPNNTSSGAAPTNGITAQEALQIAYRPMPPANTVEYEEDFGPNMMIHREFVSSRHRTRMASDISALAYSDVELARARQQLAGVMNRERRGALVGSGGEAGDRVLFNSDVDETTREVKSARFLFNEQRMRFCDRFQTFFRERIERWAAGDAGAGEDDHPYFSLMEACAVLHGCDTVDAREVYYRRFLGLDLDTLEAEEAALRARAADAAEVGARLTRGEAGAGGGALVAAAAGGAGGAGSATDVVQDIIDALPPLFPQPAAAEVGEASEAVADAPPARARAAGAGELPPATAAAPAHLAEDAAPLYKAYLAHARGESPVGSYDVTTLGAHAAHAERRRWRSLMDKIAAEDYHELTAAELEDAHVLNGQLHTVKFFDLKVGDTVREIVQLLERETGSSASGDRDVPVEMSPTHPERRV | not soluble |
| MAHHHHHHMLSASSSSSELETADDASVEHAALAYERVRREHALQRYLKAREAYEVACIARERRQLVVQSHNHTLRLLGQVVCDVKAVVDGTLKEGLSVRESTATAAEMLLASSCYKRAERGLVTLLAHEGRQHEVLRAATSPATETSRIPQVFSSGSRAEKPVASSPAKHMLRPLLLLCEWRLDYATLLCRQRLPLFSELARAQRVVSNSRESAREARGRMSAPTTPVVQRCQVQVAEARASLAKARAFQRSLKDRLHQLHQMLSRSAPVHAESGVFVDAGVAEEIQARLRQELAVGHVTLLRILCESLSGAFDERGRLTAL | not soluble |
| MAHHHHHHMLTSENPAERAGQAGQAIRPPPSPVPDGTRPSDSSRGDSSVSPLSTTGISSSSALDAPIVQSTQPSEKGLRSETISLGTALPNEQPKERSESKAKQGSSTSEEVAESPDDSGDAVEKEKKGDVGPKATTSLSSTTSNPPVTQTTPRASSAEPPPTETELQTGEETSTENVTITKRNNTTTPGDSDGSTAVSHTTSPLLLLLVVVECAAAAAVVAA | soluble |
| MAHHHHHHMLYLKEIELGNYYICNLDDYPREYCVVDYDPNKVIKFLCPIVHNEGEEMKTYDSSYCFRYKGIKDRLIISNNEEQIYTTLPGIILENQILYDRYNLGIYLMPLKLEEDMSIVCVCDTKKEYKGITPYIKINIKKSNNLLGADSADQHIKGCDFGNNQGEHQFLTNSQSYEENLVCEIHANPGDIVGINCINYNEGDLQNYEVKLEPSNCFSTVSFSLYTLSFVKMNINNIFPDARYYPESSAFPKDPNFKKFSTTSYLWIPAHVPEDFLFFCSCRYAQGEGVAIYHVGSSAAAVEAV | not soluble |
| MAHHHHHHMMNMFYRRDFPVSFRYVNDHSKFIGAGSGRGNRKRGMAPNNYTEYLRIMANEANGTGQDTSRVLFIDSEVNYRFTPVQTIVLDAYEPLTRRQQRRLVQQQYSNPFGDVSSRNARRYGAAAARARKMTVRHRAVVSAQHLQDAVDMQQKYTDFLIAEQEGVQLPPEMRNGVQDGHGGDLCHFSKRHPQRSAPSSSSPPHPQQGGSTRGRVSGPLSTPGPSSLADTESDKTPPDGNKDIKEEQQQLSMSCALAVNLEDYSLVALAEMIAEMSASETSVADYIKTEPLIEKVEVPFHGKANYLAPENCDNIDLLNWDEIQVLEKAHGTGVPEMVEETEDHKDFFR | not soluble |
| MAHHHHHHMMRIPPLVVCGPSGVGKGTLIKRLLGEFPSLFRFSISCTTRKKREKEMDGVDYYFVDKEDFEQKIKEEQFLEYDNYANNFYGTLKSEYDIAAGENKICLLEMNINGVKQLKESKHIEDGIYIFVKPPSIEILLKRLKNRNTENPEEIKKRMQELTREMDEADKVGFNYIIVNDDLARTYGELRKYLLGSYPQLGGA | soluble |
| MAHHHHHHMMRSRRPLSASRASARASAASRPQPHTTVSSDDASRSQTTAPIYRPLRYVGRGSFGVVLLAEEVHTGDRVAIKRVHYDARLHNREVAILNSVLVDNPRHQQPSSTAVDSNDASRRPGGAARASCTSFLSASSSSHTVEDVHLWPGTHHPNIVELLDFYVTYDTASSEQALGADMVGAGGAGAGFEFLPSYHPAAHRYPLSGGSGAASASAPPVPAPLAAFAYLEMVMSYLPMDLCYVKRYYFRFHDMPTIATSSSSSPIASPEQAPTELSSGELPEGTADRLPASPKHAGTGCNGNNSSRHSSTSSSGGDVCNHLPLRWVKVVLFQLARALAFMHVRHVCHRDLKPANVLVDPDTGRVQVCDFGSAKQITRPAEEKNVSYICSRYYRAPELLFGALHYGCAVDMWSFGCIAAELLRESGKPLFRGCTSIDQMAELFKVLGAPSKREMYAMNPQCAEALLRTRAMHRHQSLDNDPHSGSGGGVRQDRSCGLELEVDYQAEEEDDVELRGGAQQGGYDVDSHGEFLRDALDDGISSQASASPGMATASPPSSSTKDPRDYKTTFSAPPSTAATAMLDDVAPTPFEEYYDVLKVRAIPWRRLFPVDTPTEAVALVASLLCYAPDKRLTAAELVEHPFFDDLFSAADAQLATVDRDAATAVASGATMSPSEDDGVASAALRLPNGRLMPLSMFQVTEVERGLYTDAFLTRMARQAELVAAVMKQDEYP | not soluble |
| MAHHHHHHMNCPIVLKTLEQNKNFCVINPEAMDSCIYISLDYFKENLITSCTHKKPLPHTCNVKNEISGIKNLKTEQIELNEFIQEYYKRLIINDDEIMWNVCYFRKSKEFLTILLLEFLKSMLTVLNKYNGKCIFKKTEYLVNCGHHITHRIWIQMFYEYGFESVDADTKKNMKNYPIIQQEDGNNRTLYLTIADHYKWDA | not soluble |
| MAHHHHHHMNFEDDDDIVIPGEFLGLQAEYINGNNTYLLKDEIRSSILGQKIINKNNDKKTIISVYNLKPPSLYLPKIGDIVICKVQRVSFHMIYCYILSSHNIFTKNALKGFILKSDIHINEGELGDNFICFKQGDIIKAKVLSIGQYSSYKLSTVGSELGVIAAFNQKGEILRPVAWNLVLNINDMTFERRKASNDFSLLL | not soluble |
| MAHHHHHHMNGELNIGAGRVIFYRTIAKQNRNTLPLWTLQRHLYAYHPYVWFAIASASNAEAMEKLAERLGMKLVQDATTSYKISIRRSSELLDGELNAQLQCTKMNRPWDRFLITHYVRSQMPDLRFLVRARHPIKKRVTDAYLEADILRSTRDSVQSVLSPELGEVCYCCERVIRKWAMRTQTGVTLQLVETRRTPLIITKAGDEGERLEYEWIVVLPQKAERIDIAALSAELWDYGNVLARELEPGMEEFLSHTMTAAASY | not soluble |
| MAHHHHHHMNGTRRFSAAPVNFDRFIALAHSYSRSLSPDRELDQMLRPFQGRAAASTSTATRESTASRVATPQRRHQQMRNGELIDKGSVSTEAEVGKPYWGTTESVAMTRSTTASNTVFSTRAATSTSRTVSGGAAETTSAVSTRSSYLVHSSCPVGEETQELGSGSYSADEVDPLLQAAMQLGSPLYDPVKRQFVCWQLHALEKRPRAAYGDVEGVSCDFCGHTDWLEGVPERATSSPSASATVANADEGKMDTHAPSAAASFTAHARFFYNCSACQVDVCQACLEEVRSDERLHVPCFQCQRCGGYETRQNAPLHRCAEVTRISDDEGSTGVQALLTSPRSNVDASQALPAAPATSSPKYRGVPVGRPVRLGLCRRFQQAVEAVAAPDTEIAAHAGKIANSTPHRKRKRASPEAALVPKQRSGKTTNDTAEVFRVSDVSDKSCRKVRRASASALPKPAPPKQEADDADGDASRALVEAALLPFARYEVHLTPRTAEEVGEVGRIAREQHLVCSPLPSLAKTCVFYFTTRLAAETCVDRATAASLDAILKQSVTPVCRT | not soluble |
| MAHHHHHHMNIKRSIYHYLSYSSFLIKNHYHHNNTIYPCFHSLRNNNKMSYFRPNYFICIPIKNDNICNELINIQKHVLVKYDELKDCIIERNKFHISLLILHIKKNQIELSKEAFNEAMEKIKKNMHNEKICFEKLDTFRNDVLYLSLKEDSNKYIINIINHLIDSFSKRGIKIIFNNKKPAKEILSNNNKKELNKNSNDLQHITPHLTLMKNSYMKKMYMNKKPQILPFFYTDYDLTNLLKEQIDIQKIQFLEMDMDTSTSYYKIVSEFNL | not soluble |
| MAHHHHHHMNLRSLVPSDKQLTEEQQSHIQDLQDEIDEIWSRRGDYKIDDKAWEHMPLFMETITEEDMQKNADCAALASIAYDEVPPEDIAESRKQHGNRAIQLALNPEQVNKENLARAAAHCYTEGLNAKCKDPILNSQLYANRSLAQYIIQNYGHGLEDAQRAIILNPDYSKAYYRAARCAERVKKYDLAIDLLSKGRCTNPPPEGIALEEFEELERVCREGMKKFQKKEKEDSIRTRVRAAETSSLMRALTSYGIRLSPTPEVSSEQMGVYGQHQPYFDAVGLLHVPILFMYDEYQQTDFMQDVTCDVSTAELLDEIMPFPWDDRGRYRHMNEVVVFFKIDDGVKMAEYYEVDLSWPLMEVFRSESYKMPMLLPVLHVVCRSSELLQHWKPQKPR | not soluble |
| MAHHHHHHMPEPLEETFSRVLSAKVARAKRVFGGDINETYRLEMEKDDVVYFLKLQRGTTADFYAAESLGLSLLSDVARTPRVVQTGEVNGDAYLIMTWIQSFPSAMRGGVRRNMAELGRMVAIVHRQTSPNGQFGSSVAVPLAGCKTSAGWSKDWATYYIESLLAPQVALARRKGYWSDRREAMFVAFSKRFCAFYASKKNVQPSLLHGDLWGGNVMYGESGEPYLIDPSSYYGHREVDIAMTRLFGGFGSEFYTAYEGEMPLEAGHASRVPWYQLLPLLCHLNLFGEAYGSSVDSAMAHVL | not soluble |
| MAHHHHHHMPFVDHNKYKIQREDLPALPHFTDFNDPRFCGTNNKQKNGILAYYQWLHCVGNWGEEHSMCKKMRWYVERMMQEVWLEKWEEKRALGHFDHVLLYGVKPWKDFEPLYQPVKTNRKGAYEFWLDRDFEPLYDADASDFCEKAPILHDIFVKGKKPVYDE | not soluble |
| MAHHHHHHMPVKRSNKVHKFHEGTGDDNMPVVSMFVVKDGDEPFTRIDVELFVNKVPKACDLFLQTCAFPTVGDKRNAKRGSYKGCRFVRLTKEALQVADGSGPRAVPLSELEAEIGRVNHGVGIASLCRSSTSFDESFFFCLTDNRLELDSLDKRHVAFGRVTGGLDALMGLRDALVPYVQEGCVIVGSPYAVSEVVPKAKQ | soluble |
| MAHHHHHHMPYNALVSSHLAELTLCKLAELMVPNDFNLFVLAIKDDLLSKALEDHSLFVFLSAAFVNAIIPKLKELKLEEDKDDSPHLCALRVRPHERPFKPRLLECLKDFKGKINAECRVLYKPEAKNFPLVDGFFFVESKPKIMVGLQMTTASEHHTIPSTVNLFKENMAKYFNGWEKFSRDMLWEIIYIQHADSTPLDGWQRCDYVNPRNKTDAENEIVAFWNGKVHQYQFVLTTEFVSKIREMKM | not soluble |
| MAHHHHHHMQANLWLKGQTSTPLQRICDPVPNLLISQSSQGGQRALWLLHRPESVLGLVVSPQWQGESGDHELCDASVVSKRKIVRVMKHLHSLPFRVAGSSPLRPPMVVHKNHLVGWRIDGKAAPLYAHTLDQLAKLKPTQFKTIEPKNAFICRTYYEWDNWKEVSMEPGWTWHHVDEEIANNILDGTLTFDGLRATATDTP | soluble |
| MAHHHHHHMQCSSLKTGCLKLLSQLPEGLQQAGRTAVSAHQRSYCPYSNFAVGAALLHDDGKVTSGCNYETCVYKGTCAEACAIVKANMDGYRTAQAVAIYGRSVLPTAAAAAADATVPPCGFCRQLLAEVADLSGNMNDFLVVLVTFDQEHARLFRLSELLPQPFGPSSIGMDVAALATGEHSRCPGTF | not soluble |
| MAHHHHHHMQGTGAVSASHCTFNQRSGVSKKEELGDAMKVDNVFPGGPKKDVLVSCANKSRQTAAGIFVHWCCRCESETSGDRGNVCEFFGDCECDDIYSTSNVPKCVKGDHMWRDSSTALRAVLQDVKGRDACNISTPNGKEILMKLTREELTSNIAPQDSSSKIFLFLLAALLMQDESVAQTSN | not soluble |

From the DeepSol protein solubility set
